Results as given in IntAct's records for PubMed 16293620.

Biological target: pag_bacan pagA (UniProt P13423)

Substance	effect of a mutation on the interaction
Lethal factor (Bacillus anthracis) (from UniProt P15917) D139A	decreasing interaction
Lethal factor (Bacillus anthracis) (from UniProt P15917) D169A	decreasing interaction
Lethal factor (Bacillus anthracis) (from UniProt P15917) D169K	decreasing interaction
Lethal factor (Bacillus anthracis) (from UniProt P15917) E168A	decreasing interaction
Lethal factor (Bacillus anthracis) (from UniProt P15917) E168K	decreasing interaction
Lethal factor (Bacillus anthracis) (from UniProt P15917) K176A	decreasing interaction
Lethal factor (Bacillus anthracis) (from UniProt P15917) N173A	decreasing interaction
Lethal factor (Bacillus anthracis) (from UniProt P15917) Y141K	decreasing interaction
